Publication PMC8615638, “Tumor Marker B7-H6 Bound to the Coiled Coil Peptide-Polymer Conjugate Enables Targeted Therapy by Activating Human Natural Killer Cells” (Biomedicines, 2021)
Residue numbers refer to the chain shown, from its start. In names and notes the source's numbering stands. Several values for one entry are separate records, joined by “and”; a condition that tells them apart may be missing. Identical values can stand only once. Where no end group is shown, it is not given here.

T1: high-affinity B7-H6 (haB7-H6; S60Y, F82W, L129Y) (UniProt Q68D85 25-245, C212S | S60Y | F82W | L129Y)
T1 construct: same doubt on the C-terminal limit (L245 or T244); also called untagged haB7-H6; source: HEK293T (suspension-adapted), transient transfection, secreted, purified (IMAC, SEC)
T1 sequence (looked up): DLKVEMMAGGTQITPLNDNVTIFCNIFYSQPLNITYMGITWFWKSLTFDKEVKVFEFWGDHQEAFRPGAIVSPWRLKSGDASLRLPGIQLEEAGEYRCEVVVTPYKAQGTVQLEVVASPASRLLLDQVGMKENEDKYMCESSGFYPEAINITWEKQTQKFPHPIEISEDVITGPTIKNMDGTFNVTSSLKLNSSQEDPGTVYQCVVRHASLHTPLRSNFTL

T2: wild-type B7-H6 (extracellular domain of B7-H6 without the coiled coil tag, C212S) (UniProt Q68D85 25-245, C212S)
T2 construct: B7-H6, extracellular domain, residues D25-L245 with stabilizing mutation C212S; cloned as described previously [37]; also called non-modified B7-H6; soluble B7-H6 construct; source: HEK293T (suspension-adapted), transient transfection, secreted, purified (IMAC, SEC)
T2 sequence (looked up): T1 sequence (looked up) with Y36S, W58F, Y105L

T3: high-affinity coiled coil B7-H6 (haB7-H6CC; S60Y, F82W, L129Y) (UniProt Q68D85 25-244, C212S | S60Y | F82W | L129Y)
T3 construct: additional N-terminal residues from the vector, as in B7-H6CC; GT and the (VAALKEK)4 coiled coil motif, as in B7-H6CC; C-terminus -GT(VAALKEK)4H8G; source: HEK293T (suspension-adapted), transient transfection, secreted, purified (IMAC, SEC); not shown: His8 (H8G), C-terminal, kept
T3 sequence: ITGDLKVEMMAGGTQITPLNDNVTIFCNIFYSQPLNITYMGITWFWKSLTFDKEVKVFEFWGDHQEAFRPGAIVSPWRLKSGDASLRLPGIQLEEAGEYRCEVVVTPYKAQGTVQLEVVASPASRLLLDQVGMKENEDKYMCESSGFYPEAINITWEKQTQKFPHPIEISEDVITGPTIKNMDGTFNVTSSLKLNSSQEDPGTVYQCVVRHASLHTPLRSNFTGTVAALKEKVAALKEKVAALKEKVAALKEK

B1: PolCC+: HPMA copolymer of increased length conjugated with (VAALEKE)4 coiled coil peptides (other)
peptide: VAALEKEVAALEKEVAALEKEVAALEKE
modifications: also: attached to HPMA copolymer via copper-free click chemistry, site not given here
notes: (VAALEKE)4 coiled coil peptide, written out from the printed repeat; 130 kDa conjugate with approximately ten coiled coil peptides on each polymer chain (26% w/w); the polymer also carries biotin; Synthesis details are in File S1; source: synthetic peptide attached to HPMA copolymer (RAFT polymerization, copper-free click chemistry); purified by SEC; copies: 10
B2: coiled coil B7-H6 (B7-H6CC) (ligand)
chain: T3 sequence with Y39S, W61F, Y108L
notes: additional N-terminal residues from the vector; B7-H6, extracellular domain, residues D25-T244 with stabilizing mutation C212S; GT and the (VAALKEK)4 coiled coil motif (peptide K), written out from -GT(VAALKEK)4H8G; C-terminus is -GT(VAALKEK)4H8G: the His8 is followed by a final G. In the flow cytometry the protein was labelled with AlexaFluor647 by NHS chemistry; Six N-glycosylation sites; also …
B3: PolCC: pHPMA copolymer conjugated with (VAALEKE)4 coiled coil peptides (other)
peptide: VAALEKEVAALEKEVAALEKEVAALEKE
modifications: also: attached to pHPMA copolymer via azide-alkyne cycloaddition, site not given here
notes: (VAALEKE)4 coiled coil peptide, written out from the printed repeat; 56 kDa conjugate with approximately eight coiled coil peptides on each polymer chain (40% w/w); the polymer also carries biotin; The polymer itself is no protein; also called coiled coil peptide-polymer conjugate; pHPMA-(VAALEKE)4; source: synthetic peptide attached to HPMA copolymer by click chemistry, as described previously …
B4: NKp30 ligand-binding domain (residues L19-E130, receptor ectodomain without stalk region) (receptor, UniProt O14931 19-130, looked up)
chain: LWVSQPPEIRTLEGSSAFLPCSFNASQGRLAIGSVTWFRDEVVPGKEVRNGTPEFRGRLAPLASSRFLHDHQAELHIRDVRGHDASIYVCRVEVLGLGVGTGNGTRLVVEKE
notes: cloned as described previously [37]; source: HEK293T (suspension-adapted), transient transfection, secreted, purified (IMAC, SEC)

Legend:
NKp30 (Homo sapiens) = NKp30 (Homo sapiens) (UniProt O14931); assay: BLI; settings: cited from earlier work
[1] = biological target: B2; assay: AUC; sedimentation velocity, PolCC+ titrated with B7-H6CC; 20 °C, 42,000 rpm, 280 nm, SEC buffer; settings: both partners purified
[2] = biological target: the molecule itself; assay: AUC; sedimentation velocity of B7-H6CC alone; 20 °C, 48,000 rpm, absorbance 280 nm, SEC buffer; monomer-dimer equilibrium
[3] = biological target: B2; assay: flow cytometry on cells; PolCC mixed with AlexaFluor647-labelled B7-H6CC and scFvCC (AlexaFluor488-labelled or not); complexes carried to CAIX-expressing cells by scFvCC and B7-H6CC detected on the cells; 45 min on ice, 1 µM polymer; settings: both partners purified
[4] = biological target: B2; assay: AUC; sedimentation velocity, B7-H6CC titrated with NKp30; 20 °C, 48,000 rpm, 280 nm, SEC buffer; sw isotherm fitted with A + B <=> AB; settings: both partners purified
[5] = biological target: T1, high-affinity B7-H6 (haB7-H6; S60Y, …); assay: ITC; NKp30 (124-182 µM) injected into a cell with the B7-H6 variant (15.6-25.0 µM); 25 °C; 10 mM HEPES, 150 mM NaCl, 10 mM NaN3, pH 7.5; fitted as A + B <=> AB, N = 1 - incompetent fraction of B7-H6; settings: both partners purified
[6] = biological target: T2, wild-type B7-H6 (extracellular domain …); assay: as above; settings: both partners purified
[7] = biological target: B2; assay: as above; settings: both partners purified
[8] = biological target: T3, high-affinity coiled coil B7-H6 …; assay: as above; settings: both partners purified

Molecule: B7-H6 IgV domain (from UniProt Q68D85)
Kd (NKp30 (Homo sapiens)): 409 nM

Molecule: B1
binding result [1]: binds

Molecule: B2
stoichiometry N [2]: 2

Molecule: B3
binding result [3]: binds

Molecule: B4
Kd [4]: 895 nM
stoichiometry N [4]: 0.78 and 1
Kd [5]: 115 nM
dH [5]: -12.7 kcal/mol
stoichiometry N [5]: 0.91
Kd [6]: 668 nM
dH [6]: -11.5 kcal/mol
stoichiometry N [6]: 0.88
Kd [7]: 787 nM
dH [7]: -11.2 kcal/mol
stoichiometry N [7]: 0.74
Kd [8]: 259 nM
dH [8]: -11.8 kcal/mol
stoichiometry N [8]: 0.65
